The subject of this series is anti-digoxigenin IgG antibody (sheep). The series can be described thus: fluorescence (FRET) titration. Conditions: 5'-digoxigenin; 25 mM HEPES pH 7.2, 0.1 M NaCl, 37 C (FRET titrations, templated reactions); native PAGE binding buffer not given in the material.

The values that follow come from article PMC7721721.

“GTCACCGCAAAATAAGATTTTTTTTTTGAGTCGAATTCGTACC [DIG-Q-strand#2 (DIG-conjugated templating strand)]” gave a Kd of 3.6 nM.

In general, Kd refers to the constant that tells how readily two partners part at equilibrium. Higher therefore signals weaker binding.
